# Measurements published in patent US20100316645A1 (Hoffmann-La Roche, published 2010).
# Target: T1, recombinant human VEGF165 (full-length VEGF165-His protein, R&D Systems; rhVEGF, R&D Systems Cat.-No. 293-VE) (human, UniProt P15692-4 27-191)
# T1 construct: The ELISA method names 'full-length VEGF165-His protein', and the Biacore method names rhVEGF (R&D 293-VE); also called VEGF-A
# Assay: ELISA and Biacore (SPR), including simultaneous binding (bridging ELISA, SPR sandwich)
# Protocol: Unbound Streptavidin-POD conjugate is washed away with three-six times 300 μl PBST (0.2% Tween 20) and bound Strepatavidin-POD conjugate is detected by addition of 100 μL ABTS/well. Determination of absorbance is performed on a Tecan Fluor Spectrometer at a measurement wavelength of 405 nm (reference wavelength 492 nm).
# In order to further corroborate the data from the bridging ELISA an additional assay is established to confirm simultaneous binding to VEGF and Ang-2 using surface plasmon resonance technology on a Biacore T100 instrument according to the following protocol and analyzed using the T100 software package (T100 Control, Version 2.01, T100 Evaluation, Version 2.01, T100 Kinetics Summary, Version 1.01): Ang-2 is captured with a capture level of 2000-1700 RU in PBS, 0.005% (v/v) Tween20 running buffer via a PentaHisAntibody (PentaHis-Ab BSA-free, Qiagen No. 34660) that is immobilized on a CM5 chip via amine coupling (BSA-free). HBS-N buffer served as running buffer during coupling, activation is done by mixture of EDC/NHS. The PentaHis-Ab BSA-free Capture-Antibody is diluted in coupling buffer NaAc, pH 4.5, c=30 μg/mL, finally still activated carboxyl groups are blocked by injection of 1 M Ethanolamine; ligand densities of 5000 and 17000 RU are tested. Ang-2 with a concentration of 500 nM is captured by the PentaHis-Ab at a flow of 5 μL/min diluted with running buffer+1 mg/mL BSA. […] For this sake, the bispecific tetravalent <VEGF-Ang-2> antibody is bound to Ang-2 at a flow of 50 μL/min and a concentration of 100 nM, diluted with running buffer+1 mg/mL BSA and simultaneous binding is detected by incubation with VEGF (rhVEGF, R&D-Systems Cat.-No, 293-VE) in PBS+0.005% (v/v) Tween20 running buffer at a flow of 50 μL/min and a VEGF concentration of 150 nM. Association time 120 sec, dissociation time 1200 sec. Regeneration is done after each cycle at a flow of 50 μL/min with 2×10 mM Glycin pH 2.0 and a contact time of 60 sec. […] Blanks for each Ab are measured with rhVEGF concentration “0”.
# T1 sequence (P15692 other isoform, or with tags, fused parts or gaps limits assumed): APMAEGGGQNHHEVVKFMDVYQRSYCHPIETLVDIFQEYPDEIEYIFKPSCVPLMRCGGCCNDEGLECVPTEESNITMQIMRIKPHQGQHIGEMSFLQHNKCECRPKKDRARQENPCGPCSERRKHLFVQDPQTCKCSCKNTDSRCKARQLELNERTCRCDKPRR
row,binding result,Binder
1,binds,"bispecific tetravalent antibody recognizing Ang-2 and VEGF-A of Example 1 (<VEGF> VH-CL fused via (G4S)4-connector to the C-terminus of the <Ang-2> heavy chain) (bispecific antibody, human IgG1, kappa, Tetravalent, expressed in HEK293F from three plasmids; also called bispecific tetravalent <VEGF-Ang-2> antibody; <Ang-2, VEGF> bispecific tetravalent antibody) heavy: not shown light: QPGLTQPPSVSVAPGQTARITCGGNNIGSKSVHWYQQKPGQAPVLVVYDDSDRPSGIPERFSGSNSGNTATLTISRVEAGDEADYYCQVWDSSSDHYVFGTGTKVTVLRTVAAPSVFIFPPSDEQLKSGTASVVCLLNNFYPREAKVQWKVDNALQSGNSQESVTEQDSKDSTYSLSSTLTLSKADYEKHKVYACEVTHQGLSSPVTKSFNRGEC DIQMTQSPSSLSASVGDRVTITCSASQDISNYLNWYQQKPGKAPKVLIYFTSSLHSGVPSRFSGSGSGTDFTLTISSLQPEDFATYYCQQYSTVPWTFGQGTKVEIKSSASTKGPSVFPLAPSSKSTSGGTAALGCLVKDYFPEPVTVSWNSGALTSGVHTFPAVLQSSGLYSLSSVVTVPSSSLGTQTYICNVNHKPSNTKVDKKVEPKSC"
2,binds,"bispecific tetravalent antibody recognizing Ang-2 and VEGF-A of Example 2 (<VEGF> VH-CL fused via (G4S)4-connector to the N-terminus of the <Ang-2> heavy chain) (bispecific antibody, human IgG1, kappa, Tetravalent, expressed in HEK293F from three plasmids; also called bispecific tetravalent <VEGF-Ang-2> antibody; <Ang-2, VEGF> bispecific tetravalent antibody) heavy: not shown light: QPGLTQPPSVSVAPGQTARITCGGNNIGSKSVHWYQQKPGQAPVLVVYDDSDRPSGIPERFSGSNSGNTATLTISRVEAGDEADYYCQVWDSSSDHYVFGTGTKVTVLRTVAAPSVFIFPPSDEQLKSGTASVVCLLNNFYPREAKVQWKVDNALQSGNSQESVTEQDSKDSTYSLSSTLTLSKADYEKHKVYACEVTHQGLSSPVTKSFNRGEC DIQMTQSPSSLSASVGDRVTITCSASQDISNYLNWYQQKPGKAPKVLIYFTSSLHSGVPSRFSGSGSGTDFTLTISSLQPEDFATYYCQQYSTVPWTFGQGTKVEIKSSASTKGPSVFPLAPSSKSTSGGTAALGCLVKDYFPEPVTVSWNSGALTSGVHTFPAVLQSSGLYSLSSVVTVPSSSLGTQTYICNVNHKPSNTKVDKKVEPKSC"
3,binds,"bispecific tetravalent antibody recognizing Ang-2 and VEGF-A of Example 3 (<Ang-2> VH-CH1 fused via (G4S)4-connector to the C-terminus of the heavy chain of a … (bispecific antibody, Tetravalent, expressed in HEK293F from three plasmids; also called bispecific tetravalent <VEGF-Ang-2> antibody; <Ang-2, VEGF> bispecific tetravalent antibody) heavy: not shown light: QPGLTQPPSVSVAPGQTARITCGGNNIGSKSVHWYQQKPGQAPVLVVYDDSDRPSGIPERFSGSNSGNTATLTISRVEAGDEADYYCQVWDSSSDHYVFGTGTKVTVLRTVAAPSVFIFPPSDEQLKSGTASVVCLLNNFYPREAKVQWKVDNALQSGNSQESVTEQDSKDSTYSLSSTLTLSKADYEKHKVYACEVTHQGLSSPVTKSFNRGEC DIQMTQSPSSLSASVGDRVTITCSASQDISNYLNWYQQKPGKAPKVLIYFTSSLHSGVPSRFSGSGSGTDFTLTISSLQPEDFATYYCQQYSTVPWTFGQGTKVEIKSSASTKGPSVFPLAPSSKSTSGGTAALGCLVKDYFPEPVTVSWNSGALTSGVHTFPAVLQSSGLYSLSSVVTVPSSSLGTQTYICNVNHKPSNTKVDKKVEPKSC"
